Data from patent publication US10633429B2, “Human antibody κ type light chain complex-containing composition and method for producing same” (JAPAN SCIENCE AND TECHNOLOGY AGENCY, priority 2013, dated 2020).

How the values were obtained:
[1] = test system: A549 cell line (human alveolar epithelial cancer cell line); assay: Cytotoxicity assay (WST assay), A549 cell line; format: cell-based; settings: Example 6, 24 h, light chain not bound with copper ions set to 100%
Protocol: (§1) The cytotoxicity of each complex-containing composition to cancer cells was tested using cancer cell lines. As the cancer cell lines, A549 cell line (human alveolar epithelial cancer cell line), ES-2 cell line (human ovarian cancer cell line), MOLT-4 cell line (human acute lymphoblastic leukemia T cell line), BxPC-3 cell line (human pancreatic adenocarcinoma cell line), SNU-1 cell line (human metastatic gastric cancer cell line), and PANC-1 cell line (human pancreatic cancer cell line) were used.
(§2) All of these cell lines were purchased from ATCC (American Type Culture Collection). Here, the A549 cell line was cultured using a 10% FCS (fetal calf serum)-containing F-12K culture medium by a general method, the ES-2 cell line was cultured using a 10% FCS-containing McCoy's 5A culture medium by a general method, each of the MOLT-4 cell line, SNU-1 cell line, and BxPC-3 cell line was cultured using a 10% FCS-containing RPMI-1640 culture medium by a general method, the PANC-1 cell line was cultured using a 10% FCS-containing DMEM culture medium by a general method, and the WI-38 cell line was cultured using a 10% FCS-containing EMEM culture medium by a general method.
(§3) First, after being recovered by thawing the frozen cancer cell lines, the recovered cancer cell lines were seeded in a 96-well plate by 100 μL to be 5×10^3 cells/well (the number of seeds was appropriately adjusted by cell species). After culturing was carried out at 37° C. for 24 hours, a culture medium to be added to the 96-well plate was removed by decantation, and then each complex-containing composition prepared at a concentration of about 1 mg/mL was added to each well by 100 μL. After culturing was carried out for 24 hours or 48 hours from the addition of the complex-containing composition (after cells are planted and cultivated for 48 hours or 72 hours), a WST-1 reagent (manufactured by Roche Inc.) was added to each well by 10 μL and incubated for 1, 1.5, and 2 hours to form a formazan dye, and then the absorbance (Abs at 450 nm) of the formazan dye was measured (WST assay). As a control, a human antibody κ type light chain not bound to metal ions or PBS was added instead of the complex-containing composition and cultured for 24 hours or 48 hours, and then WST assay was carried out. Based on the results of the obtained absorbance, the cell survival rate of the well added with the human antibody κ type light chain not bound to metal ions or the well added with the PBS was set to 100%, and the cell survival rate of each well was determined, so as to evaluate the cytotoxicity of the added complex-containing composition.

[2] = test system: ES-2 cell line (human ovarian cancer cell line); assay: Cytotoxicity assay (WST assay), ES-2 cell line; format: cell-based; settings: Example 6, 24 h, light chain not bound with copper ions set to 100%
Protocol: as §1, §2, §3

[3] = test system: B-16 cell line (mouse melanoma-derived cell) subcutaneous tumor; assay: Cytotoxicity assay in tumor-bearing mouse model, B-16 cell line transplanted; format: in vivo; settings: B-16-transplanted mouse; 32.3 μg per mouse injected into subcutaneous tumor, total of 10 times from 4th day; n=2
Protocol: [Cytotoxicity Assay in Tumor-Bearing Mouse Model]
The cytotoxicity of each complex-containing composition to cancer cells in a tumor-bearing mouse model was tested using tumor-bearing mouse models.
First, the ES-2 cell line (human ovarian cancer-derived cell) or the B-16 cell line (mouse melanoma-derived cell) was subcutaneously transplanted into a mouse to a concentration of 2.5×10^6 cells/mouse. The complex-containing composition was administered against tumors subcutaneously established in the mouse from the 4th day after cancer cell transplantation. The administration of the complex-containing composition was carried out by directly injecting the complex-containing composition into a plurality of sites in the subcutaneous tumor from the outside of the mouse body using a syringe. […]
The volume of the subcutaneous tumor over time was measured from the outside of the mouse body, the volume of the subcutaneous tumor at the 1st day after cancer cell transplantation (next day after transplantation) was set to 1, and the relative tumor volume was determined, so as to evaluate the cytotoxicity of the complex-containing composition to cancer cells in the tumor-bearing mouse model. […]

[4] = test system: SNU-1 cell line (human metastatic gastric cancer cell line); assay: Cytotoxicity assay (WST assay), SNU-1 cell line; format: cell-based; settings: 24 h, light chain not bound with copper ions set to 100%
Protocol: as §1
(§4) All of these cell lines were purchased from ATCC (American Type Culture Collection). […]
(§5) First, after being recovered by thawing the frozen cancer cell lines, the recovered cancer cell lines were seeded in a 96-well plate by 100 μL to be 5×10^3 cells/well (the number of seeds was appropriately adjusted by cell species). […] After culturing was carried out for 24 hours or 48 hours from the addition of the complex-containing composition (after cells are planted and cultivated for 48 hours or 72 hours), a WST-1 reagent (manufactured by Roche Inc.) was added to each well by 10 μL and incubated for 1, 1.5, and 2 hours to form a formazan dye, and then the absorbance (Abs at 450 nm) of the formazan dye was measured (WST assay). […]

[5] = test system: MOLT-4 cell line (human acute lymphoblastic leukemia T cell line); assay: Cytotoxicity assay (WST assay), MOLT-4 cell line; format: cell-based; settings: Example 6, 24 h, light chain not bound with copper ions set to 100%
Protocol: as §1, §2, §3
Meanwhile, in the case of the MOLT-4 cell line, from the time cells were seeded in the 96-well plate, each complex-containing composition prepared at a concentration of about 1 mg/mL was added to each well by 100 μL and cultured for 24 hours or 48 hours, and then WST assay was carried out.

[6] = test system: BxPC-3 cell line (human pancreatic adenocarcinoma cell line); assay: Cytotoxicity assay (WST assay), BxPC-3 cell line; format: cell-based; settings: Example 6; copper-bound light chain 40 μM; 24 h; light chain not bound with copper ions set to 100%
Protocol: as §1, §4, §5

[7] = copper-bound light chain 12.3 μM

Molecule	Relative cell survival rate ([2]; copper-bound light chain 20 μM) [%]	Relative cell survival rate ([1]; copper-bound light chain 40 μM) [%]	Relative cell survival rate ([2]; copper-bound light chain 40 μM) [%]	Relative cell survival rate ([5]; copper-bound light chain 40 μM) [%]	further results
#11: human antibody κ type light chain, SEQ ID NO. 14; tested bound with copper ions (protein, bound copper ions; human; Human antibody kappa light chain (#11)) light: DIVMTQTPLSLSVTPGQPASISCKSSQSLLHSDGKTYLYWYLQKPGQSPQLLLYEVSSRFSGVPDRFSGSGSGTDFTLKISRVEAEDVGVYYCMQGIHLPYTFGQGTKLEIKRTVAAPSVFIFPPSDEQLKSGTASVVCLLNNFYPREAKVQWKVDNALQSGNSQESVTEQDSKDSTYSLSSTLTLSKADYEKHKLYACEVTHQGLSSPVTKSFNRGEC	23.8	–	–	–	Relative cell survival rate [1, 7]: 73.2%; Relative cell survival rate ([1]; copper-bound light chain 20 μM): 54.5%; Relative cell survival rate [2, 7]: 58.5%
#4: human antibody κ type light chain, SEQ ID NO. 12; tested bound with copper ions (protein, bound copper ions; human; Human antibody kappa light chain (#4)) light: DVVMTQTPLSLSVTPGEPASISCRSTQSLLDSDGVNPSFDWYVQKPGQSPQLLIHRGFYRASGVPDRFSGSGSGTDFTLRISRVEAEDVGVYYCMQRIEFPLTFGGGTKVELKRTVAAPSVFIFPPSDEQLKSGTASVVCLLNNFYPREAKVQWKVDNALQSGNSQESVTEQDSKDSTYSLSSTLTLSKADYEKHKLYACEVTHQGLSSPVTKSFNRGEC	50.3	–	–	–	Relative tumor volume at 15 days after transplantation, compared to control group (PBS) [3]: about ⅓; Relative cell survival rate ([1]; copper-bound light chain 25.2 μM): 81.8%; Relative cell survival rate ([1]; copper-bound light chain 34.9 μM): 79.1%; Relative cell survival rate ([4]; Example 7, Table 5, copper-bound light chain 39.4 μM): 29.5%; Relative cell survival rate ([5]; copper-bound light chain 4 μM): 69.6%; Relative cell survival rate ([5]; copper-bound light chain 20 μM): 42.3%; Relative cell survival rate ([5]; copper-bound light chain 40.4 μM): 24.3%
#7VL: mutant of light chain #7, full-length SEQ ID NO. 4; tested bound with copper ions (protein, bound copper ions; human; Human antibody kappa light chain (#7 VL)) light: EIVMTQSPLSLPVTPGEPASISCRSSQSLLHSNTRNYLDWYLQKPGQSPQLLIYLGSNRASGVPDRFSGSGSGTDFTLKISRVEAEDVGVYYCMQGLQTPRTFGQGTKVEIKRTVAAPSVFIFPPSDEQLKSGTASVVCLLNNFYPREAKVQWKVDNALQSGNSQESVTEQDSKDSTYSLSSTLTLSKADYEKHKLYACEVTHQGLSSPVTKSFNRGEC	–	45.9	35.7	29.4	–
#7VL(I): mutant of light chain #7, full-length SEQ ID NO. 6; tested bound with copper ions (protein, bound copper ions; human; Human antibody kappa light chain (#7 VL(I))) light: EIVMTQSPLSLPVTPGEPASISCRSSQSLLHSNTRNYLDWYLQKPGQSPQLLIYLGSNRASGVPDRFSGSGSGTDFTLKISRVEAEDVGVYYCMQGLQTPITFGQGTKVEIKRTVAAPSVFIFPPSDEQLKSGTASVVCLLNNFYPREAKVQWKVDNALQSGNSQESVTEQDSKDSTYSLSSTLTLSKADYEKHKLYACEVTHQGLSSPVTKSFNRGEC	–	79.0	53.7	58.7	–
#7RL I: mutant of light chain #7, full-length SEQ ID NO. 10; tested bound with copper ions (protein, bound copper ions; human; Human antibody kappa light chain (#7 RLI)) light: EIVMTQSPLSLPVTPGEPASISCRSSQSLLHSNTRNYLDWYLQKPGQSPQLLIYLGSNRASGVPDRFSGSGSGTDFTLKISRVEAEDVGVYYCMQGLQTPITFGQGTRLEIKRTVAAPSVFIFPPSDEQLKSGTASVVCLLNNFYPREAKVQWKVDNALQSGNSQESVTEQDSKDSTYSLSSTLTLSKADYEKHKLYACEVTHQGLSSPVTKSFNRGEC	–	41.9	–	–	Relative cell survival rate ([4]; Example 6, copper-bound light chain 40 μM): 52.2%; Relative cell survival rate [6]: 77.6%
#7VL(RL): mutant of light chain #7, full-length SEQ ID NO. 8; tested bound with copper ions (protein, bound copper ions; human; Human antibody kappa light chain (#7 VL(RL))) light: EIVMTQSPLSLPVTPGEPASISCRSSQSLLHSNTRNYLDWYLQKPGQSPQLLIYLGSNRASGVPDRFSGSGSGTDFTLKISRVEAEDVGVYYCMQGLQTPRTFGQGTRLEIKRTVAAPSVFIFPPSDEQLKSGTASVVCLLNNFYPREAKVQWKVDNALQSGNSQESVTEQDSKDSTYSLSSTLTLSKADYEKHKLYACEVTHQGLSSPVTKSFNRGEC	–	48.0	49.4	32.4	–
